Data on one molecule can be found in PMC2588524 (Nucleic Acids Research, 2008).

Assay [1] addresses T1, C-terminal domain of mouse Dnmt3a (residues 608-908) (mouse, UniProt O88508 608-908). The assay is described as follows: AUC.
The target of assay [2] is T1, C-terminal domain of mouse Dnmt3a …. The assay is described as follows: co-purification.

T1 sequence (O88508 608-908): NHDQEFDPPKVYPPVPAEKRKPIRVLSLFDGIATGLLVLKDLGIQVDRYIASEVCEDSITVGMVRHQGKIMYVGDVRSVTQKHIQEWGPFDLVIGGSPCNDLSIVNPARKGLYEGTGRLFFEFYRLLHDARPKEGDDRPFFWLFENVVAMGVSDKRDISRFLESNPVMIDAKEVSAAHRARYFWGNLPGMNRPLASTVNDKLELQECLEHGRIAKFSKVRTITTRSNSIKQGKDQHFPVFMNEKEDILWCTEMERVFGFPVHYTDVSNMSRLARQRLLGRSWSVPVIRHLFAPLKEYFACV

B1: C-terminal domain of mouse Dnmt3L (residues 208-421) (domain or fragment, UniProt Q9CWR8 208-421, looked up)
chain: GPMEIYKTVSAWKRQPVRVLSLFRNIDKVLKSLGFLESGSGSGGGTLKYVEDVTNVVRRDVEKWGPFDLVYGSTQPLGSSCDRCPGWYMFQFHRILQYALPRQESQRPFFWIFMDNLLLTEDDQETTTRFLQTEAVTLQDVRGRDYQNAMRVWSNIPGLKSKHAPLTPKEEEYLQAQVRSRSKLDAPKVDLLVKNCLLPLREYFKYFSQNSLPL
Regarding B1, the “stoichiometry N” value was 1 2:2 (Dnmt3a-C:Dnmt3L-C) in assay [1] and 1 in assay [2].
